According to US11021687B2, “Production of differentiated enteroendocrine cells and insulin producing cells” (Massachusetts Institute of Technology, priority 2016, dated 2021):

Experiments:
Type in all cases: cell-based, mouse
intestinal stem cells [1] = test: mRNA expression (qPCR) of ChgA and other lineage markers in differentiated intestinal stem cells; settings: Noggin in step 2
Description: “mRNA ChgA Expression Assay” refers to an assay used to determine the relative ChgA mRNA expression level in a cell population. For example, the assay can determine ChgA mRNA expression level of a differentiated cell population following treatment with agents being tested, as compared to an untested population of post-natal stem cells. In an example of an mRNA ChgA Expression Assay, the cells were collected and the RNA is extracted from the cells using an RNA extraction kit (such as RNeasy Mini kit, Qiagen). The ChgA expression level is then assessed by Quantitative real-time PCR using a one-step qPCR kit (such as QuantiTech Probe PCR kit, Qiagen) and ChgA primers and probes (such as commercially available Taqman probe for mouse ChgA, Life Technologies).
(§1) Organoids or differentiated cells were harvested and RNA was extracted using RNeasy Micro Kit (Qiagen) according to the manufacturer's instruction. Quantitative real-time PCR was performed with QuantiTect Probe PCR kit (Qiagen) using commercially available primers and TaqMan probes (Life Technologies).
Cells were then cultured with EGF, Noggin, and DAPT (END), as well as small molecules. After 2-3 days of differentiation, the cells lysed and ChgA expression was measured by qRT-PCR.
Small molecules were further validated using a 24-well plate culture and the differentiation system. […]

[2] = tested on: gastrointestinal stem cells; test: Insulin / Nkx6.1 mRNA expression (qPCR), 3-stage conversion to insulin producing cells; settings: added in Stage 1, combined with RepSox
Description: “mRNA Insulin Expression Assay” refers to an assay used to determine the relative insulin mRNA expression level of a cell population. For example, the assay can determine the insulin mRNA level expressed in a cell population treated to increase the expression of insulin in the cells, as compared to an untreated population of cells. In an exemplary mRNA Insulin Expression Assay, the cells were collected and the RNA is extracted from the cells using an RNA extraction kit (such as RNeasy Mini kit, Qiagen). The insulin expression level is then assessed by Quantitative real-time PCR using a one-step qPCR kit (such as QuantiTech Probe PCR kit, Qiagen) and Ins1 or Ins2 primers and probes (such as the commercially available TaqMan probe for mouse Ins1 and Ins2, Life Technologies). The relative insulin mRNA expression can be determined relative to a baseline or other marker, such as Hprt mRNA expression level or other baseline marker.
as §1, with “Technologies). […]” for “Technologies).”

intestinal stem cells [3] = test: Ngn3 mRNA expression during EEC differentiation; settings: 2 days
Method: “Ngn3 Assay” as used herein is an assay used to determine the extent of expression of Ngn3 in cells, such as cells subjected to a differentiation protocol. In an exemplary Ngn3 Assay, RNA is isolated from cells that have been cultured according to a differentiation protocol, and quantitative real-time PCR is performed using commercially available primers and probes (such as Taqman probes) to determine an extent of Ngn3 expression in the cells.
as §1
There has been prior speculation that Ngn3 positive secretory progenitors differentiate to EECs (Genes Dev. 2002).

B1: Noggin: growth factor (protein, UniProt Q13253 28-232, looked up)
Noggin: QHYLHIRPAPSDNLPLVDLIEHPDPIFDPKEKDLNETLLRSLLGGHYDPGFMATSPPEDRPGGGGGAAGGAEDLAELDQLLRQRPSGAMPSEIKGLEFSEGLAQGKKQRLSKKLRRKLQMWLWSQTFCPVLYAWNDLGSRFWPRYVKVGSCFSKRSCSVPEGMVCKPSKSVHLTVLRWRCQRRGGQRCGWIPIQYPIISECKCSC
- effect on EEC differentiation (intestinal stem cells [1]): marginal

B2: FGF10: growth factor added in Stage 1 (protein, UniProt O15520 38-208, looked up)
Fibroblast growth factor 10: QALGQDMVSPEATNSSSSSFSSPSSAGRHVRSYNHLQGDVRWRKLFSFTKYFLKIEKNGKVSGTKKENCPYSILEITSVEIGVVAVKAINSNYYLAMNKKGKLYGSKEFNNDCKLKERIEENGYNTYASFNWQHNGRQMYVALNGKGAPRRGQKTRRKNTSAHFLPMVVHS
- Insulin expression [2]: further increased

B3: R-spondin1: Wnt activator, a protein belonging to the R-Spondin family (protein, UniProt Q2MKA7 21-263, looked up)
R-spondin-1: SRGIKGKRQRRISAEGSQACAKGCELCSEVNGCLKCSPKLFILLERNDIRQVGVCLPSCPPGYFDARNPDMNKCIKCKIEHCEACFSHNFCTKCKEGLYLHKGRCYPACPEGSSAANGTMECSSPAQCEMSEWSPWGPCSKKQQLCGFRRGSEERTRRVLHAPVGDHAACSDTKETRRCTVRRVPCPEGQKRRKGGQGRRENANRNLARKESKEAGAGSRRRKGQQQQQQQGTVGPLTSAGPA
- Ngn3 expression on removal of R-spondin1 (intestinal stem cells [3]): strong reduction
